Results: US20160116473A1 (KOREA INSTITUTE OF RADIOLOGICAL AND MEDICAL SCIENCES, published 2016)

Target: T1, Signal transducer and activator of transcription 3 (STAT3) (human, UniProt P40763 2-770)
T1 construct: Endogenous protein in cell lysates (co-immunoprecipitation) or in fixed cells and tissues (PLA)
Assay: co-immunoprecipitation from Hep-2 and RR-Hep-2 cell lysates, immunoblot
Description: Cells were lysed with nonyl phenoxypolyethoxylethanol-40 (NP-40), and the lysates were then precipitated with a negative control mouse antibody (Santa Cruz Biotechnology Inc.) or a mouse monoclonal antibody against ERp57 (Santa Cruz Biotechnology Inc.). Afterwards, immune complexes were collected using protein G-Sepharose and washed 3 times, and SDS sample buffer was added thereto. The samples were size-fractionated by electrophoresis.

T1 sequence (P40763 2-770 limits assumed): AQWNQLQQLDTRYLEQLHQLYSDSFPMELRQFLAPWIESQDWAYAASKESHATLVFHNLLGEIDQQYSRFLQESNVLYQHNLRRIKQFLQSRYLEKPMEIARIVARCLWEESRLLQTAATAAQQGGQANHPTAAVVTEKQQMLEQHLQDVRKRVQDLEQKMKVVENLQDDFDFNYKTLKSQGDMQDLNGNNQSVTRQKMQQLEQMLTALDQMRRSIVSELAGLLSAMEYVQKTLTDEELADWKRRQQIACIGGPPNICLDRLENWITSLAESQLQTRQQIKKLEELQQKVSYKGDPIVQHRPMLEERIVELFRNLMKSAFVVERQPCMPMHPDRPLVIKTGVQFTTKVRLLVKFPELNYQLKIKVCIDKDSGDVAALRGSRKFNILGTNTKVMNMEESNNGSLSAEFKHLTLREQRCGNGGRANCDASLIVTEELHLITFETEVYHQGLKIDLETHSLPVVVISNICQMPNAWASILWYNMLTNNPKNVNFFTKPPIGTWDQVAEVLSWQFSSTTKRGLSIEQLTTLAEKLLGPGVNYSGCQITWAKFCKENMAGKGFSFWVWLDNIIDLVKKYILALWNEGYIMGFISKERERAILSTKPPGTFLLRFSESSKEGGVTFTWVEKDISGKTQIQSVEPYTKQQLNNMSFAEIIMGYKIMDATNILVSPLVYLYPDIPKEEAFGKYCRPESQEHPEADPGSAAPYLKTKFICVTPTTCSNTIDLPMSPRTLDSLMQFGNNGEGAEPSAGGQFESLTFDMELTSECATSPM

binding result: binds
B1: ERp57 (enzyme, human, UniProt P30101 25-505, looked up)
chain: SDVLELTDDNFESRISDTGSAGLMLVEFFAPWCGHCKRLAPEYEAAATRLKGIVPLAKVDCTANTNTCNKYGVSGYPTLKIFRDGEEAGAYDGPRTADGIVSHLKKQAGPASVPLRTEEEFKKFISDKDASIVGFFDDSFSEAHSEFLKAASNLRDNYRFAHTNVESLVNEYDDNGEGIILFRPSHLTNKFEDKTVAYTEQKMTSGKIKKFIQENIFGICPHMTEDNKDLIQGKDLLIAYYDVDYEKNAKGSNYWRNRVMMVAKKFLDAGHKLNFAVASRKTFSHELSDFGLESTAGEIPVVAIRTAKGEKFVMQEEFSRDGKALERFLQDYFDGNLKRYLKSEPIPESNDGPVKVVVAENFDEIVNNENKDVLIEFYAPWCGHCKNLEPKYKELGEKLSKDPNIVIAKMDATANDVPSPYEVRGFPTIYFSPANKKLNPKKYEGGRELSDFISYLQREATNPPVIQEEKPKKKKKAQEDL
notes: Endogenous protein in cell lysates (co-immunoprecipitation) or in fixed cells and tissues (PLA); also called protein disulfide isomerase family A member 3; PDIA3
